Results on two substances are retold here after US20040042961.

The subject of series [1] is GFP double loop insertion mutant at positions 157-158 and 174-175 with GGGG-LETD-GGGGG (caspase 8 sites).
The test system of series [2] is GFP single insertion mutant K157-Q158 (GGGGFFRSGGGG inserted).
Series [3] deals with substitution mutants (GFP sequence substituted with FRS at various positions; fifteen fluorescent of twenty).
For series [4], the system named is GFP double insertion mutant K157-Q158 and D174-G175 (cathepsin L sites).
The test system of series [5] is GFP single insertion mutant T39-Y40 (GGGGFFRSGGGG inserted).
Series [6] has as its system GFP single insertion mutant K102-D103 (GGGGFFRSGGGG inserted).
Series [7] has as its system GFP single insertion mutant G117-D118 (GGGGFFRSGGGG inserted).
In series [8] the test system is GFP single insertion mutant D174-G175 (GGGGFFRSGGGG inserted).
For series [9], the system named is recombinant GFP-His protein (wild type GFP).

Chain of cathepsin L (chain, as listed by the source): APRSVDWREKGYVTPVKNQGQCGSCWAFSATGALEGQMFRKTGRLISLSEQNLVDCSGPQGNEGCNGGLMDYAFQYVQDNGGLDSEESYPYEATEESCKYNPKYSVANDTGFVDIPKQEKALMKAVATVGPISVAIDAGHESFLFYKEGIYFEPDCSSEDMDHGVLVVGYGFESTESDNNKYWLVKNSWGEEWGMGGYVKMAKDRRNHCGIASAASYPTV

With caspase 8, the “Cleavage at sequence introduced” value in [1] was “(yes)”.

Regarding cathepsin L, the “Cleavage at sequence introduced” value in [2] is on record as “Yes”; in series [4], “(yes)”; in series [5] it was “Yes”; in series [6], “Yes”; in series [7], “No”; in series [8], “Yes”. Moreover, the “specific cleavage (SDS-PAGE)” value in series [3] was “fifteen mutants were fluorescent and therefore properly folded, but only one of them was specifically cleaved by cathepsin L”. Moreover, the “GFP fluorescence and SDS-PAGE band on incubation with 400 nM cathepsin L at pH 5.5 and 4.8” value in series [9] was “A time-dependent decrease in GFP fluorescence was observed (FIG. 10A), with concommitant disappearance of the GFP band on SDS-PAGE”.
